From publication PMC4326527

Biological target: UAF1-mRFP (UniProt Q8TAF3)
Assay: nuclear relocation assay
Details: 293T cells co-transfected with UAF1-mRFP; at least 100 cells per slide; three independent experiments; parent: est. 10; read off a plot

Chain of UniProt Q8TAF3 (Q8TAF3 whole entry): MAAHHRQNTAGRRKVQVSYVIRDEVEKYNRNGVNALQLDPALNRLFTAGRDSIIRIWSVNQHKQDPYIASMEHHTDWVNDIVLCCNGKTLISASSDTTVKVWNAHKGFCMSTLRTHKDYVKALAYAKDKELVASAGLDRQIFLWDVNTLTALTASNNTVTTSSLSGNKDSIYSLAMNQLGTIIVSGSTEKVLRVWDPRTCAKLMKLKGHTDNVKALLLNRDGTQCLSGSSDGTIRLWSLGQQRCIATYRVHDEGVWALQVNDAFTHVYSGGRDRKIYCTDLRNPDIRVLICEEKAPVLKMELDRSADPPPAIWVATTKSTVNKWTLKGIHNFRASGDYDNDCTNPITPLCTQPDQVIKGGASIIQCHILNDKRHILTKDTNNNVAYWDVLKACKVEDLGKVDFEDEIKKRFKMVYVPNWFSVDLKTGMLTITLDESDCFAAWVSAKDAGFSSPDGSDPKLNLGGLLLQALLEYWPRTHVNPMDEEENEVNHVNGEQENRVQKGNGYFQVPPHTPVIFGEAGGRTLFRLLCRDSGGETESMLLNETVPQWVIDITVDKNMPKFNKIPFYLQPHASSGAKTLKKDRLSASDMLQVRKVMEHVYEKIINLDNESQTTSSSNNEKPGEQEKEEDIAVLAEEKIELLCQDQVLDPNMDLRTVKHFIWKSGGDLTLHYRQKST

With YFP-USP1(del420-520) S313D the other: UAF1-mRFP N/C localization (% of cells), nuclear/cytoplasmic (N/C) class was 12 % of cells.
